Biological target: purified, recombinant human FMRP protein

Protein	IRE1-induced phosphorylation sites on FMRP (LC-MS/MS)	phosphorylation in an in vitro kinase reaction of purified proteins (western blot for ThioP; LC-MS/MS)	thio-phosphorylation in an in vitro kinase reaction (ATP-γ-S; western blot with anti-thiophosphate ester antibody)
purified, recombinant human IRE1-kinase/RNase domains (amino acids 468-977) (protein) MHQQQQLQHQQFQKELEKIQLLQQQQQQLPFHPPGDTAQDGELLDTSGPYSESSGTSSPSTSPRASNHSLCSGSSASKAGSSPSLEQDDGDEETSVVIVGKISFCPKDVLGHGAEGTIVYRGMFDNRDVAVKRILPECFSFADREVQLLRESDEHPNVIRYFCTEKDRQFQYIAIELCAATLQEYVEQKDFAHLGLEPITLLQQTTSGLAHLHSLNIVHRDLKPHNILISMPNAHGKIKAMISDFGLCKKLAVGRHSFSRRSGVPGTEGWIAPEMLSEDCKENPTYTVDIFSAGCVFYYVISEGSHPFGKSLQRQANILLGACSLDCLHPEKHEDVIARELIEKMIAMDPQKRPSAKHVLKHPFFWSLEKQLQFFQDVSDRIEKESLDGPIVKQLERGGRAVVKMDWRENITVPLQTDLRKFRTYKGGSVRDLLRAMRNKKHHYRELPAEVRETLGSLPDDFVCYFTSRFPHLLAHTYRAMELCSHERLFQPYYFHEPPEPQPPVTPDAL	eight IRE1-induced phosphorylation sites on FMRP at serine (S362, S494, S497, S500, S504) and threonine (T502, T592, T594)	Both IRE1 and FMRP were phosphorylated in this reaction in an AMG-18-sensitive manner	–
inositol-requiring enzyme-1 (IRE1), wild type, expressed from plasmid in HEK293T cells (protein) IFGSTSTVTLPETLLFVSTLDGSLHAVSKRTGSIKWTLKEDPVLQVPTHVEEPAFLPDPNDGSLYTLGSKNNEGLTKLPFTIPELVQASPCRSSDGILYMGKKQDIWYVIDLLTGEKQQTLSSAFADSLCPSTSLLYLGRTEYTITMYDTKTRELRWNATYFDYAASLPEDDVDYKMSHFVSNGDGLVVTVDSESGDVLWIQNYASPVVAFYVWQREGLRKVMHINVAVETLRYLTFMSGEVGRITKWKYPFPKETEAKSKLTPTLYVGKYSTSLYASPSMVHEGVAVVPRGSTLPLLEGPQTDGVTIGDKGECVITPSTDVKFDPGLKSKNKLNYLRNYWLLIGHHETPLSASTKMLERFPNNLPKHRENVIPADSEKKSFEEVINLVDQTSENAPTTVSRDVEEKPAHAPARPEAPVDSMLKDMATIILSTFLLIGWVAFIITYPLSMHQQQQLQHQQFQKELEKIQLLQQQQQQLPFHPPGDTAQDGELLDTSGPYSESSGTSSPSTSPRASNHSLCSGSSASKAGSSPSLEQDDGDEETSVVIVGKISFCPKDVLGHGAEGTIVYRGMFDNRDVAVKRILPECFSFADREVQLLRESDEHPNVIRYFCTEKDRQFQYIAIELCAATLQEYVEQKDFAHLGLEPITLLQQTTSGLAHLHSLNIVHRDLKPHNILISMPNAHGKIKAMISDFGLCKKLAVGRHSFSRRSGVPGTEGWIAPEMLSEDCKENPTYTVDIFSAGCVFYYVISEGSHPFGKSLQRQANILLGACSLDCLHPEKHEDVIARELIEKMIAMDPQKRPSAKHVLKHPFFWSLEKQLQFFQDVSDRIEKESLDGPIVKQLERGGRAVVKMDWRENITVPLQTDLRKFRTYKGGSVRDLLRAMRNKKHHYRELPAEVRETLGSLPDDFVCYFTSRFPHLLAHTYRAMELCSHERLFQPYYFHEPPEPQPPVTPDAL	–	–	In the reaction containing IRE1-WT, both proteins were thio-phosphorylated
kinase dead (KD) mutant IRE1 (K599A), expressed from plasmid in HEK293T cells (protein) IFGSTSTVTLPETLLFVSTLDGSLHAVSKRTGSIKWTLKEDPVLQVPTHVEEPAFLPDPNDGSLYTLGSKNNEGLTKLPFTIPELVQASPCRSSDGILYMGKKQDIWYVIDLLTGEKQQTLSSAFADSLCPSTSLLYLGRTEYTITMYDTKTRELRWNATYFDYAASLPEDDVDYKMSHFVSNGDGLVVTVDSESGDVLWIQNYASPVVAFYVWQREGLRKVMHINVAVETLRYLTFMSGEVGRITKWKYPFPKETEAKSKLTPTLYVGKYSTSLYASPSMVHEGVAVVPRGSTLPLLEGPQTDGVTIGDKGECVITPSTDVKFDPGLKSKNKLNYLRNYWLLIGHHETPLSASTKMLERFPNNLPKHRENVIPADSEKKSFEEVINLVDQTSENAPTTVSRDVEEKPAHAPARPEAPVDSMLKDMATIILSTFLLIGWVAFIITYPLSMHQQQQLQHQQFQKELEKIQLLQQQQQQLPFHPPGDTAQDGELLDTSGPYSESSGTSSPSTSPRASNHSLCSGSSASKAGSSPSLEQDDGDEETSVVIVGKISFCPKDVLGHGAEGTIVYRGMFDNRDVAVARILPECFSFADREVQLLRESDEHPNVIRYFCTEKDRQFQYIAIELCAATLQEYVEQKDFAHLGLEPITLLQQTTSGLAHLHSLNIVHRDLKPHNILISMPNAHGKIKAMISDFGLCKKLAVGRHSFSRRSGVPGTEGWIAPEMLSEDCKENPTYTVDIFSAGCVFYYVISEGSHPFGKSLQRQANILLGACSLDCLHPEKHEDVIARELIEKMIAMDPQKRPSAKHVLKHPFFWSLEKQLQFFQDVSDRIEKESLDGPIVKQLERGGRAVVKMDWRENITVPLQTDLRKFRTYKGGSVRDLLRAMRNKKHHYRELPAEVRETLGSLPDDFVCYFTSRFPHLLAHTYRAMELCSHERLFQPYYFHEPPEPQPPVTPDAL	–	–	but not in the reaction containing the IRE1-KD mutant
